Here are results for 3 compounds from article PMC10609963, “Targeting Lactate Dehydrogenase-B as a Strategy to Fight Cancer: Identification of Potential Inhibitors by In Silico Analysis and In Vitro Screening” (Pharmaceutics, 2023).

Where two headings read alike, the source gives them in different places.

The test system of data set [1] is T1, NC(=O)c1ccc[n+]([C@@H]2O[C@H](COP(=O)(O)OP(=O)(O)OC[C@H]3O[C@@H](n4cnc5c(N)ncnc54)[C@H](O)[C@@H]3O)[C@@H](O)[C@H]2O)c1.
T1 construct: commercial recombinant protein (R&D Systems); homotetramer (LDH-1)
Briefly: NBT/PMS colorimetric kinetics, Michaelis-Menten fit. Format: biochemical, Homo sapiens. The note with it: 25 mM sodium lactate, no inhibitor (control), pH 9.6, room temperature, varied: cofactor. An excerpt: (§1) NBT/PMS colorimetric kinetics, Michaelis-Menten fit on Recombinant human LDH-B

Data set [2] has as its system T2, C[C@H](O)C(=O)O.
T2 construct: commercial recombinant protein (R&D Systems); homotetramer (LDH-1)
Described as above. It is filed as biochemical, Homo sapiens. The note with it: 1 mM NAD+, no inhibitor (control), pH 9.6, room temperature.
Description: as §1

Data set [3] concerns the target T3, Recombinant human LDH-B (Homo sapiens, UniProt P07195).
T3 construct: gene LDHB; commercial recombinant protein (R&D Systems); homotetramer (LDH-1)
Briefly: NBT/PMS colorimetric kinetics, mixed-model inhibition fit. It is filed as biochemical. An excerpt: NBT/PMS colorimetric kinetics, mixed-model inhibition fit on Recombinant human LDH-B

Data set [4] concerns the target T3, Recombinant human LDH-B. Briefly: NBT/PMS end-point colorimetric assay, 96-well, lactate to pyruvate. It is filed as biochemical.

T3 sequence (P07195 2-334): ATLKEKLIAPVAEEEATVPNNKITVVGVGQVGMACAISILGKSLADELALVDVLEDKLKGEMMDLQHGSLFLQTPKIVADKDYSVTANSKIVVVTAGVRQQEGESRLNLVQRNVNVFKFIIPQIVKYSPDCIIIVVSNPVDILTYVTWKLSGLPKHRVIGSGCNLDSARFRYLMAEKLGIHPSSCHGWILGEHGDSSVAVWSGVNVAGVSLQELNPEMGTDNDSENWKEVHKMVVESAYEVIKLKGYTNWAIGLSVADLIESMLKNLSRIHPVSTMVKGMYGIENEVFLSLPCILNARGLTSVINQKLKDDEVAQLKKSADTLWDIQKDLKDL

Take Recombinant human LDH-B (Homo sapiens): in data set [1], the Km is 0.311 mM and the Vmax stood at 1040 µM/min. For the same compound, in data set [2], the Km is 18.5 mM and the Vmax came to 1050 µM/min.

Take `CNC(=O)c1ccc(-c2cnc3ncc(Cc4ccc5ncccc5c4)n3n2)cc1F` [compound 2, Capmatinib]: the Ki in data set [3] (read-out: Capmatinib / Lactate) is 2.69 mM. The IC50 in data set [4] came out at 0.512 mM.

In the case of `Cc1cc(Nc2ncnc3ccc(NC4=NC(C)(C)CO4)cc23)ccc1Oc1ccn2ncnc2c1` [compound 1, Tucatinib], the Ki in data set [3] (read-out: Tucatinib / Lactate) came to 2.96 mM. Also, the half-inhibitory concentration (IC50) in data set [4] is 0.502 mM.
